In the supplement of paper PMC9112550, “Optimization of the antimicrobial peptide Bac7 by deep mutational scanning” (BMC Biology, 2022):

system: Escherichia coli TOP10; assay: shrunken log2 fold change of peptide-encoding DNA abundance (4.5 h post-induction vs induction); higher = less antimicrobial activity (less host growth inhibition); settings: time post-induction: 4.5 h; library: site-saturation at positions 5, 18, 19, 20
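Note: peptides expressed intracellularly from a pBAD plasmid library in pooled LB shake-flask culture, induced with 0.3% L-arabinose, DNA abundance read by NGS, three biological replicates, DESeq2 with apeglm shrinkage.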

| Sequence | shrunken log2 fold change |
| --- | --- |
| RRIRTRPPRLPRPRPRPMGSPRP | -0.0908 |
| RRIRTRPPRLPRPRPRPMHTPRP | 0.0134 |
| RRIRTRPPRLPRPRPRPMICPRP | -0.0677 |
| RRIRTRPPRLPRPRPRPMKLPRP | -0.192 |
| RRIRTRPPRLPRPRPRPMKYPRP | -0.0467 |
| RRIRTRPPRLPRPRPRPMLFPRP | 0.177 |
| RRIRTRPPRLPRPRPRPMMDPRP | -0.141 |
| RRIRTRPPRLPRPRPRPMRQPRP | -0.01 |
| RRIRTRPPRLPRPRPRPMSDPRP | -0.0819 |
| RRIRTRPPRLPRPRPRPMSNPRP | -0.535 |
| RRIRTRPPRLPRPRPRPMTDPRP | 0.0245 |
| RRIRTRPPRLPRPRPRPMWEPRP | -0.0158 |
| RRIRTRPPRLPRPRPRPMWQPRP | 0.0135 |
| RRIRTRPPRLPRPRPRPMYNPRP | -0.325 |
| RRIRTRPPRLPRPRPRPNAPPRP | -0.0472 |
| RRIRTRPPRLPRPRPRPNEEPRP | -0.0204 |
| RRIRTRPPRLPRPRPRPNFLPRP | 0.998 |
| RRIRTRPPRLPRPRPRPNHCPRP | -0.479 |
| RRIRTRPPRLPRPRPRPNHYPRP | -0.679 |
| RRIRTRPPRLPRPRPRPNIHPRP | -0.586 |
| RRIRTRPPRLPRPRPRPNILPRP | -0.484 |
| RRIRTRPPRLPRPRPRPNINPRP | -0.812 |

| Sequence | shrunken log2 fold change |
| --- | --- |
| RRIRTRPPRLPRPRPRPNLWPRP | -0.0774 |
| RRIRTRPPRLPRPRPRPNNDPRP | -0.797 |
| RRIRTRPPRLPRPRPRPNNNPRP | -0.451 |
| RRIRTRPPRLPRPRPRPNPNPRP | -0.306 |
| RRIRTRPPRLPRPRPRPNQIPRP | -0.469 |
| RRIRTRPPRLPRPRPRPNQKPRP | -0.306 |
| RRIRTRPPRLPRPRPRPNRNPRP | -0.544 |
| RRIRTRPPRLPRPRPRPNSHPRP | -0.015 |
| RRIRTRPPRLPRPRPRPNSKPRP | -0.848 |
| RRIRTRPPRLPRPRPRPNSRPRP | -0.0848 |
| RRIRTRPPRLPRPRPRPNSYPRP | -0.188 |
| RRIRTRPPRLPRPRPRPNTLPRP | -0.377 |
| RRIRTRPPRLPRPRPRPNVEPRP | -0.00865 |
| RRIRTRPPRLPRPRPRPNVFPRP | 0.0305 |
| RRIRTRPPRLPRPRPRPNWQPRP | 0.0832 |
| RRIRTRPPRLPRPRPRPNWTPRP | 0.00155 |
| RRIRTRPPRLPRPRPRPPDLPRP | 0.243 |
| RRIRTRPPRLPRPRPRPPFSPRP | 0.0411 |
| RRIRTRPPRLPRPRPRPPGIPRP | 0.264 |
| RRIRTRPPRLPRPRPRPPHCPRP | 0.474 |
| RRIRTRPPRLPRPRPRPPHMPRP | -0.101 |
| RRIRTRPPRLPRPRPRPPIHPRP | -0.323 |

| Sequence | shrunken log2 fold change |
| --- | --- |
| RRIRTRPPRLPRPRPRPPIKPRP | -0.368 |
| RRIRTRPPRLPRPRPRPPINPRP | -0.338 |
| RRIRTRPPRLPRPRPRPPMGPRP | 0.271 |
| RRIRTRPPRLPRPRPRPPMQPRP | 0.0806 |
| RRIRTRPPRLPRPRPRPPMWPRP | 0.0903 |
| RRIRTRPPRLPRPRPRPPPSPRP | 1.16 |
| RRIRTRPPRLPRPRPRPPPYPRP | -0.000222 |
| RRIRTRPPRLPRPRPRPPQAPRP | 0.121 |
| RRIRTRPPRLPRPRPRPPRKPRP | 0.25 |
| RRIRTRPPRLPRPRPRPPRLPRP | 0.343 |
| RRIRTRPPRLPRPRPRPPRNPRP | 1.27 |
| RRIRTRPPRLPRPRPRPPSGPRP | 0.467 |
| RRIRTRPPRLPRPRPRPPTYPRP | -0.149 |
| RRIRTRPPRLPRPRPRPPVIPRP | 0.213 |
| RRIRTRPPRLPRPRPRPPWFPRP | 0.0438 |
| RRIRTRPPRLPRPRPRPPWGPRP | 0.0724 |
| RRIRTRPPRLPRPRPRPQASPRP | 2.4 |
| RRIRTRPPRLPRPRPRPQAYPRP | -0.629 |
| RRIRTRPPRLPRPRPRPQCFPRP | 0.0187 |
| RRIRTRPPRLPRPRPRPQCGPRP | -0.0173 |
| RRIRTRPPRLPRPRPRPQCKPRP | -0.26 |
| RRIRTRPPRLPRPRPRPQDMPRP | -0.48 |

| Sequence | shrunken log2 fold change |
| --- | --- |
| RRIRTRPPRLPRPRPRPQFAPRP | 0.0816 |
| RRIRTRPPRLPRPRPRPQFGPRP | -0.00643 |
| RRIRTRPPRLPRPRPRPQFNPRP | -0.226 |
| RRIRTRPPRLPRPRPRPQGHPRP | -0.122 |
| RRIRTRPPRLPRPRPRPQGNPRP | -0.164 |
| RRIRTRPPRLPRPRPRPQGTPRP | 0.0402 |
| RRIRTRPPRLPRPRPRPQHDPRP | -0.259 |
| RRIRTRPPRLPRPRPRPQKFPRP | -0.632 |
| RRIRTRPPRLPRPRPRPQKNPRP | -0.419 |
| RRIRTRPPRLPRPRPRPQLVPRP | 0.0727 |
| RRIRTRPPRLPRPRPRPQMAPRP | -0.177 |
| RRIRTRPPRLPRPRPRPQMFPRP | 0.0287 |
| RRIRTRPPRLPRPRPRPQNIPRP | -0.587 |
| RRIRTRPPRLPRPRPRPQNNPRP | -0.716 |
| RRIRTRPPRLPRPRPRPQPKPRP | 0.151 |
| RRIRTRPPRLPRPRPRPQPSPRP | -0.095 |
| RRIRTRPPRLPRPRPRPQQDPRP | -0.18 |
| RRIRTRPPRLPRPRPRPQQIPRP | -0.0971 |
| RRIRTRPPRLPRPRPRPQRNPRP | -0.115 |
| RRIRTRPPRLPRPRPRPQRVPRP | -0.0793 |
| RRIRTRPPRLPRPRPRPQTCPRP | -0.176 |
| RRIRTRPPRLPRPRPRPQVGPRP | -0.137 |

| Sequence | shrunken log2 fold change |
| --- | --- |
| RRIRTRPPRLPRPRPRPQWWPRP | 0.199 |
| RRIRTRPPRLPRPRPRPRAGPRP | 0.41 |
| RRIRTRPPRLPRPRPRPRCAPRP | 0.0538 |
| RRIRTRPPRLPRPRPRPRCHPRP | -0.334 |
| RRIRTRPPRLPRPRPRPRCIPRP | 0.0613 |
| RRIRTRPPRLPRPRPRPRCNPRP | -0.36 |
| RRIRTRPPRLPRPRPRPRDPPRP | 0.047 |
| RRIRTRPPRLPRPRPRPRDVPRP | 0.369 |
| RRIRTRPPRLPRPRPRPRELPRP | 0.267 |
| RRIRTRPPRLPRPRPRPRFLPRP | 0.903 |
| RRIRTRPPRLPRPRPRPRGGPRP | 0.334 |
| RRIRTRPPRLPRPRPRPRGLPRP | 0.62 |
| RRIRTRPPRLPRPRPRPRHNPRP | -0.293 |
| RRIRTRPPRLPRPRPRPRIMPRP | -0.254 |
| RRIRTRPPRLPRPRPRPRIYPRP | -0.304 |
| RRIRTRPPRLPRPRPRPRKSPRP | -0.0508 |
| RRIRTRPPRLPRPRPRPRKTPRP | 0.111 |
| RRIRTRPPRLPRPRPRPRKWPRP | 0.215 |
| RRIRTRPPRLPRPRPRPRLCPRP | 0.317 |
| RRIRTRPPRLPRPRPRPRMSPRP | -0.259 |
| RRIRTRPPRLPRPRPRPRNDPRP | -0.227 |
